Experimental data taken from PMC9798703.
Where two headings read alike, the source gives them in different places.

B1: GREB1 (structured_RNA)
RNA: GGGAUGCCGAAGAGUUGAUGUCAAUCUUUUUUUCCUAAGAAAAAAAGUCCGCGAGUAUUCC
B2: rERE duplex (dsRNA)
RNA 1: CAGGUCAGAGUGACCUGAUU
RNA 2: AAUCAGGUCACUCUGACCUG

Legend:
Assay in all cases: fluorescence anisotropy
ERα DBD-Ext [1] = biological target: T1, ERα DBD-Ext (Homo sapiens, UniProt P03372)
ERα DBD-Ext [2] = biological target: T1, ERα DBD-Ext; remark: listed apart in the source
ERα DBD-Ext [3] = biological target: T1, ERα DBD-Ext; remark: listed apart in the source
ERα DBD-Ext [4] = biological target: T1, ERα DBD-Ext; remark: listed apart in the source

| Binder | binding result (ERα DBD-Ext [1]) | Kd (ERα DBD-Ext [2]) | other results |
| --- | --- | --- | --- |
| B1 | binds |  |  |
| GGGAUCUGCCUGCAUCCUGACGCGGUGCCGUCCC (structured_RNA) [TFF1] | binds |  |  |
| CAGGUCAGAGUGACCUGAUUCGUCAGGUCACUCUGACCUG (structured_RNA) [rERE] |  | 130 ± 20 nM |  |
| UCAGGUCACUCUGACCUGGCUUCAGGUCAGAGUGACCUGA (structured_RNA) [rERE loop rescue] |  |  | binding result (ERα DBD-Ext [3]): binds |
| B2 |  | 1100 nM |  |
| AUACAACAUACAACAUACAACAUACAACAUACAAC (ssRNA) [ssRNA (env8)] |  |  | Kd (ERα DBD-Ext [4]): ~1100 nM |
